According to paper doi:10.1101/491043:

Molecular target: M. tuberculosis ClpX (M. tuberculosis) (UniProt P9WPB9)
Test: SPR

Substance	fold reduction in binding against σ^D/RsdA	Kd
σ^L/RslA complex (from UniProt H8EXN1;H8EXN2)	10 fold	–
σ^M/RsmA complex	–	133 nM
σ^D/RsdA complex (from UniProt P9WGG8;H8EZ77)	–	14.5 nM
σ^K/RskA complex (from UniProt A5TZH1;A5TZH0)	–	164 nM
